In assay [1] the target is T1, SARS-CoV-2 Alpha variant RBD蛋白 (SARS-CoV-2, UniProt P0DTC2 319-541).
T1 construct: domain: RBD
Kind of assay: SPR (Biacore 8K).

The target in assay [2] is SARS-CoV-2 Beta variant RBD蛋白 (Beta型新型冠状病毒刺突蛋白受体结合域段RBD蛋白) (SARS-CoV-2, UniProt P0DTC2 319-541). Description: SPR (Biacore 8K).
Assay [3] has as its target SARS-CoV-2 Omicron variant RBD蛋白 (Omicron新型冠状病毒RBD蛋白) (SARS-CoV-2, UniProt P0DTC2 319-541). Description: SPR (Biacore 8K).
Assay [4] deals with T2, SARS-CoV-2 Delta variant RBD蛋白 (SARS-CoV-2, UniProt P0DTC2 319-541).
T2 construct: domain: RBD
Description: SPR (Biacore 8K).

A further assay addresses T3, Omicron BA.2-RBD (SARS-CoV-2, UniProt P0DTC2 319-541).
T3 construct: domain: RBD
Description: lateral-flow sandwich, gold-labelled IMCAS-364 as detector (Table 4).

The next assay has as its target T4, Omicron BA.1-RBD (SARS-CoV-2, UniProt P0DTC2 319-541).
T4 construct: domain: RBD
Description: lateral-flow sandwich, gold-labelled IMCAS-364 as detector (Table 5).

B1: IMCAS-364抗体 (全抗IgG1) (antibody, V domains shown)
VH: QVQLQESGGGVVQPGRSLRLSCAASGFTFSRYGMHWVRQAPGKGLEWVAVIWYDGSNKYYADSVKGRFTISRDNSKNTLYLQMNSLRADDTAVYYCAKQEGTYCSGGSCYSGLDYWGQGTLVTVSS
VL: not shown
notes: also called 金标抗体 (胶体金标记)
As for B1, the Kd in assay [1] turned out to be 1.06 nM; in assay [2], 1.07 nM; in assay [3], 2.19 nM.

B2: IMCAS-72抗体 (全抗IgG1) (antibody, V domains shown)
VH: QVQLVESGGGLVQPGGSLRLSCAASGFTFSSYGMHWVRQAPGKGLEWVAVISYDGSDKYYADSVKGRFTISRDNSKNTLYLQMNSLRAEDTAVYYCARDRDRFGDQGGWFDPWGQGTLVTVSS
VL: not shown
notes: also called T2线抗体
As to B2, in assay [4], the Kd was 0.62 nM. For the same molecule, the binding result with Omicron BA.2-RBD is reported as “no binding (tested: IMCAS-72 0.8mg/mL on the T2 line)”; with Omicron BA.1-RBD, “no binding (tested: IMCAS-72 2mg/mL on the T2 line)”.

B3: IMCAS-123抗体 (全抗IgG1) (antibody, V domains shown)
VH: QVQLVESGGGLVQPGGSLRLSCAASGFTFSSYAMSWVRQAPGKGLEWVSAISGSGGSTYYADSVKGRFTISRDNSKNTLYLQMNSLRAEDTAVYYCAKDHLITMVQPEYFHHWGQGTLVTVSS
VL: DIQMTQSPSSVSASVGDSVTITCRASQGISRWLAWYQQRPGKAPKLLIYAAGNLETGVPSRFSGSGSGTDFTLTISDLQAEDFATYYCQQADSFPLTFGGGTKVDIKR
notes: also called T1线抗体
In the case of B3, the Kd in assay [1] was 0.15 nM; in assay [2], 0.32 nM; in assay [4], 0.48 nM; in assay [3], 1.41 nM.

The values are drawn from patent CN114395035A (JIANGSU MICKEE MEDICAL TECH CO LTD; INST OF MICROBIOLOGY OF …, dated 2022).
